Assay results taken from US8247535B2, “Directed evolution of GRG31 EPSP synthase enzyme” (Athenix Corp., priority 2008, dated 2012).

Columns and labels:
Format in all cases: biochemical
GRG31 EPSP synthase [1] = experiment: Extract prescreens of library clones at a few glyphosate and PEP concentrations; conditions: for activity in glyphosate prescreen: 0, 1, and 2 mM glyphosate, among 31 resistant clones; for combination of glyphosate resistance and activity at low PEP concentrations: library 3, 0 and 0.2 mM glyphosate, 0, 20, and 50 μM PEP
Procedure: Library 1 was cloned into pAX3625 and 130,000 clones were plated onto plates containing 50 mM glyphosate. […] Extracts were prepared and assessed for glyphosate resistance by assaying activity in the presence of a small number of glyphosate concentrations (0, 1, and 2 mM glyphosate).
Extracts from these six clones were assayed for activity at a range of PEP concentrations (0, 20, 50, and 100 μM PEP).
One hundred and fifteen thousand (115,000) clones were plated onto plates containing 50 mM glyphosate and 384 glyphosate resistant clones were picked for sequencing. […] A Ki assessment of the unique clones was carried out by testing activity at 0 and 0.2 mM glyphosate. […] An assessment of the Km of protein encoded by these nine clones was performed by comparing activity at 0, 20, and 50 μM PEP.

GRG31 EPSP synthase [2] = experiment: Kinetic analysis of GRG31 variants (Ki for glyphosate, Km for PEP, Vmax); parameters: Vmax: unit not given here; conditions: for Ki: Ki for glyphosate, calculated from plot of Km(app) vs. glyphosate concentration; for Km: Km for PEP; for Vmax: unit not given
Procedure: GRG31 variants L3P2b11, L3P2c11 and L4e11, and L5e3 were characterized by enzymatic assays as described herein, and compared to the native GRG31 enzyme. For each enzyme the apparent Km (Km(app)) was determined at each of several glyphosate concentrations, and a plot of Km(app) vs. glyphosate concentration was used to calculate the Ki for each enzyme. The thermostability for each enzyme was assessed by incubating the enzyme at 37° C. for 16 hours, and then quantifying the enzymatic activity remaining (as Vmax) vs. control enzyme that was incubated at 4° C.

GRG31 EPSP synthase [3] = conditions: for thermostability at 37° C. compared with GRG31: survival of activity at 37° C., in words
Procedure: The thermostability of several variants of GRG31 was analyzed by measuring survival of activity at 37° C.

Row | Molecule | activity in glyphosate prescreen (GRG31 EPSP synthase [1]; extracts) | Ki (GRG31 EPSP synthase [2]) | Km (GRG31 EPSP synthase [2]) | improvement in Ki for glyphosate relative to GRG31 (GRG31 EPSP synthase [2]; relative to GRG31, in words) | Vmax (GRG31 EPSP synthase [2]) | other results
1 | GRG31pm3a8: GRG31 Q-loop library 1 variant, SEQ ID NO:9 (protein, GRG31 variant (clone GRG31pm3a8)) MNQQVITLTHPSKKIQGTVQLTGSKSESNRALIIQSLSKGQVEIANLSEAADTVTLNRVLQIASDPKPGFNTIDCGPAGTGVRFLTAFLNLVKGNFILTGTERMQQRPIGILVDAMKEIGADIHYDKKVGYPPLKIEGGLFQEKDRVKIKGNISSQYISALLLIAPALKKGLTLEIEGELTSRPYVSMTLDMLKSVGIQHEWKNNAIKIAPQAFEKQTIYVEPDWSAASYWYAIAALADANASIVLPGLRKNSLQGDIAIISIMEHFGVQSSFESDGLHLNKKVIGSDVSLFNFKECPDLAQTVVVVAAALKRDVSFTGLETLKIKETDRIAALQKEIAKFGAELIEDGDTYHLKTAQVYQPEEVTFDTYEDHRMAMAFAPLALVFDQIKIAEPQVVEKSYPDFWNHLQAQAFVIE | best activity |  |  |  |  | 
2 | GRG31pm3d3: GRG31 Q-loop library 1 variant, SEQ ID NO:12 (protein, GRG31 variant (clone GRG31pm3b3)) MNQQVITLTHPSKKIQGTVQLTGSKSESNRALIIQSLSKGQVEIANLSEAADTVTLNRVLQIASDPKPGFNTIDCDAAGTATRFLTAFLNLVKGNFILTGTERMQQRPIGILVDAMKEIGADIHYDKKVGYPPLKIEGGLFQEKDRVKIKGNISSQYISALLLIAPALKKGLTLEIEGELTSRPYVSMTLDMLKSVGIQHEWKNNAIKIAPQAFEKQTIYVEPDWSAASYWYAIAALADANASIVLPGLRKNSLQGDIAIISIMEHFGVQSSFESDGLHLNKKVIGSDVSLFNFKECPDLAQTVVVVAAALKRDVSFTGLETLKIKETDRIAALQKEIAKFGAELIEDGDTYHLKTAQVYQPEEVTFDTYEDHRMAMAFAPLALVFDQIKIAEPQVVEKSYPDFWNHLQAQAFVIE | best activity |  |  |  |  | 
3 | L3P2c11: GRG31 variant Y88→F, SEQ ID NO:14 (protein, GRG31 variant (clone L3P2c11)) MNQQVITLTHPSKKIQGTVQLTGSKSESNRALIIQSLSKGQVEIANLSEAADTVTLNRVLQIASDPKPGFNTIDIGPAGTAMRFLTAFLNLVKGNFILTGTERMQQRPIGILVDAMKEIGADIHYDKKVGYPPLKIEGGLFQEKDRVKIKGNISSQYISALLLIAPALKKGLTLEIEGELTSRPYVSMTLDMLKSVGIQHEWKNNAIKIAPQAFEKQTIYVEPDWSAASYWYAIAALADANASIVLPGLRKNSLQGDIAIISIMEHFGVQSSFESDGLHLNKKVIGSDVSLFNFKECPDLAQTVVVVAAALKRDVSFTGLETLKIKETDRIAALQKEIAKFGAELIEDGDTYHLKTAQVYQPEEVTFDTYEDHRMAMAFAPLALVFDQIKIAEPQVVEKSYPDFWNHLQAQAFVIE |  | 715 µM | 39.6 µM | improved | 5.3 | combination of glyphosate resistance and activity at low PEP concentrations (GRG31 EPSP synthase [1]): best combination of glyphosate resistance and activity at low PEP concentrations
4 | L3P2c11 + 6b2: GRG31 variant Y88→F; N95→S, A206→V, SEQ ID NO:25 (protein, GRG31 variant (L3P2c11+6b2)) MNQQVITLTHPSKKIQGTVQLTGSKSESNRALIIQSLSKGQVEIANLSEAADTVTLNRVLQIASDPKPGFNTIDIGPAGTAMRFLTAFLNLVKGSFILTGTERMQQRPIGILVDAMKEIGADIHYDKKVGYPPLKIEGGLFQEKDRVKIKGNISSQYISALLLIAPALKKGLTLEIEGELTSRPYVSMTLDMLKSVGIQHEWKNNVIKIAPQAFEKQTIYVEPDWSAASYWYAIAALADANASIVLPGLRKNSLQGDIAIISIMEHFGVQSSFESDGLHLNKKVIGSDVSLFNFKECPDLAQTVVVVAAALKRDVSFTGLETLKIKETDRIAALQKEIAKFGAELIEDGDTYHLKTAQVYQPEEVTFDTYEDHRMAMAFAPLALVFDQIKIAEPQVVEKSYPDFWNHLQAQAFVIE |  | 405 µM | 7.9 µM | more than four-fold | 23.4 | Vmax improvement over the GRG31(L3P2c11) protein (GRG31 EPSP synthase [2]; relative to GRG31(L3P2c11), in words): about four to five-fold; Vmax relative to GRG31 (GRG31 EPSP synthase [2]; relative to GRG31, in words): approximately equal to that of GRG31; improvement in Km for PEP relative to GRG31 (GRG31 EPSP synthase [2]; relative to GRG31, in words): approximately two-fold; t1/2 at 37° C. (GRG31 EPSP synthase [3]): 3.5 h; thermostability at 37° C. compared with GRG31 (GRG31 EPSP synthase [3]): improved thermostability
5 | L3P2c11 + triple EK: GRG31 variant Y88→F; N95→S, A206→V; E215→K, SEQ ID NO:23 (protein, GRG31 variant (L3P2c11+triple EK)) MNQQVITLTHPSKKIQGTVQLTGSKSESNRALIIQSLSKGQVEIANLSEAADTVTLNRVLQIASDPKPGFNTIDIGPAGTAMRFLTAFLNLVKGSFILTGTERMQQRPIGILVDAMKEIGADIHYDKKVGYPPLKIEGGLFQEKDRVKIKGNISSQYISALLLIAPALKKGLTLEIEGELTSRPYVSMTLDMLKSVGIQHEWKNNVIKIAPQAFKKQTIYVEPDWSAASYWYAIAALADANASIVLPGLRKNSLQGDIAIISIMEHFGVQSSFESDGLHLNKKVIGSDVSLFNFKECPDLAQTVVVVAAALKRDVSFTGLETLKIKETDRIAALQKEIAKFGAELIEDGDTYHLKTAQVYQPEEVTFDTYEDHRMAMAFAPLALVFDQIKIAEPQVVEKSYPDFWNHLQAQAFVIE |  | 298 µM | 12.6 µM |  | 14.4 | t1/2 at 37° C. (GRG31 EPSP synthase [3]): 2.7 h; thermostability at 37° C. compared with GRG31 (GRG31 EPSP synthase [3]): thermostability equivalent to GRG31
6 | GRG31pm3b8: GRG31 variant I75→C; P77→N; M82→T, SEQ ID NO:10 (protein, GRG31 variant (clone GRG31pm3b8)) MNQQVITLTHPSKKIQGTVQLTGSKSESNRALIIQSLSKGQVEIANLSEAADTVTLNRVLQIASDPKPGFNTIDCGNAGTATRFLTAYLNLVKGNFILTGTERMQQRPIGILVDAMKEIGADIHYDKKVGYPPLKIEGGLFQEKDRVKIKGNISSQYISALLLIAPALKKGLTLEIEGELTSRPYVSMTLDMLKSVGIQHEWKNNAIKIAPQAFEKQTIYVEPDWSAASYWYAIAALADANASIVLPGLRKNSLQGDIAIISIMEHFGVQSSFESDGLHLNKKVIGSDVSLFNFKECPDLAQTVVVVAAALKRDVSFTGLETLKIKETDRIAALQKEIAKFGAELIEDGDTYHLKTAQVYQPEEVTFDTYEDHRMAMAFAPLALVFDQIKIAEPQVVEKSYPDFWNHLQAQAFVIE | best activity | 116 µM |  |  |  | activity at low PEP concentrations (GRG31 EPSP synthase [1]; extracts, 0, 20, 50, and 100 μM PEP, among six clones): best activity at low PEP concentrations
7 | L3P2b11: GRG31 variant P77→Q; A81→S; M82→L; Y88→F, SEQ ID NO:13 (protein, GRG31 variant (clone L3P2b11)) MNQQVITLTHPSKKIQGTVQLTGSKSESNRALIIQSLSKGQVEIANLSEAADTVTLNRVLQIASDPKPGFNTIDIGQAGTSLRFLTAFLNLVKGNFILTGTERMQQRPIGILVDAMKEIGADIHYDKKVGYPPLKIEGGLFQEKDRVKIKGNISSQYISALLLIAPALKKGLTLEIEGELTSRPYVSMTLDMLKSVGIQHEWKNNAIKIAPQAFEKQTIYVEPDWSAASYWYAIAALADANASIVLPGLRKNSLQGDIAIISIMEHFGVQSSFESDGLHLNKKVIGSDVSLFNFKECPDLAQTVVVVAAALKRDVSFTGLETLKIKETDRIAALQKEIAKFGAELIEDGDTYHLKTAQVYQPEEVTFDTYEDHRMAMAFAPLALVFDQIKIAEPQVVEKSYPDFWNHLQAQAFVIE |  | 983 µM | 11 µM | improved | 5.7 | combination of glyphosate resistance and activity at low PEP concentrations (GRG31 EPSP synthase [1]): best combination of glyphosate resistance and activity at low PEP concentrations
8 | GRG31pm3b9: GRG31 Q-loop library 1 variant, SEQ ID NO:11 (protein, GRG31 variant (clone GRG31pm3b9)) MNQQVITLTHPSKKIQGTVQLTGSKSESNRALIIQSLSKGQVEIANLSEAADTVTLNRVLQIASDPKPGFNTIDCDAAGTSMRFLAAYLNLVKGNFILTGTERMQQRPIGILVDAMKEIGADIHYDKKVGYPPLKIEGGLFQEKDRVKIKGNISSQYISALLLIAPALKKGLTLEIEGELTSRPYVSMTLDMLKSVGIQHEWKNNAIKIAPQAFEKQTIYVEPDWSAASYWYAIAALADANASIVLPGLRKNSLQGDIAIISIMEHFGVQSSFESDGLHLNKKVIGSDVSLFNFKECPDLAQTVVVVAAALKRDVSFTGLETLKIKETDRIAALQKEIAKFGAELIEDGDTYHLKTAQVYQPEEVTFDTYEDHRMAMAFAPLALVFDQIKIAEPQVVEKSYPDFWNHLQAQAFVIE | best activity |  |  |  |  | 
